Measured values reported in the supplement of paper PMC11246515.
± gives the standard deviation of the averaged measurements.

Assay: total protein half-life in vivo (active degradation + dilution); higher = more stable protein
[1] = E. coli NCM3722 delta-clpP delta-lon delta-hslV, growth: N-lim chemostat, doubling time 6 h
[2] = E. coli NCM3722 delta-clpP, growth: N-lim chemostat, doubling time 6 h
[3] = E. coli NCM3722 delta-hslV, growth: N-lim chemostat, doubling time 6 h
[4] = E. coli NCM3722 delta-lon, growth: N-lim chemostat, doubling time 6 h
[5] = E. coli NCM3722 delta-smpB, growth: N-lim chemostat, doubling time 6 h
[6] = wild type E. coli NCM3722, growth: C-lim chemostat, doubling time 3 h
[7] = wild type E. coli NCM3722, growth: C-lim chemostat, doubling time 6 h
[8] = wild type E. coli NCM3722, growth: C-lim chemostat, doubling time 12 h
[9] = wild type E. coli NCM3722, growth: N-lim chemostat, doubling time 6 h
[10] = wild type E. coli NCM3722, growth: N-lim chemostat, doubling time 12 h
[11] = wild type E. coli NCM3722, growth: P-lim chemostat, doubling time 6 h
[12] = wild type E. coli NCM3722, growth: P-lim chemostat, doubling time 12 h

Sequence	total protein half-life in vivo [1]	total protein half-life in vivo [2]	total protein half-life in vivo [3]	total protein half-life in vivo [4]	total protein half-life in vivo [5]	total protein half-life in vivo [6]	total protein half-life in vivo [7]	total protein half-life in vivo [8]	total protein half-life in vivo [9]	total protein half-life in vivo [10]	total protein half-life in vivo [11]	total protein half-life in vivo [12]
MNEQYSALRSNVSMLGKVLGETIKDALGEHILERVETIRKLSKSSRAGNDANRQELLTTLQNLSNDELLPVARAFSQFLNLANTAEQYHSISPKGEAASNPEVIARTLRKLKNQPELSEDTIKKAVESLSLELVLTAHPTEITRRTLIHKMVEVNACLKQLDNKDIADYEHNQLMRRLRQLIAQSWHTDEIRKLRPSPVDEAKWGFAVVENSLWQGVPNYLRELNEQLEENLGYKLPVEFVPVRFTSWMGGDRDGNPNVTADITRHVLLLSRWKATDLFLKDIQVLVSELSMVEATPELLALVGEEGAAEPYRYLMKNLRSRLMATQAWLEARLKGEELPKPEGLLTQNEELWEPLYACYQSLQACGMGIIANGDLLDTLRRVKCFGVPLVRIDIRQESTRHTEALGELTRYLGIGDYESWSEADKQAFLIRELNSKRPLLPRNWQPSAETREVLDTCQVIAEAPQGSIAAYVISMAKTPSDVLAVHLLLKEAGIGFAMPVAPLFETLDDLNNANDVMTQLLNIDWYRGLIQGKQMVMIGYSDSAKDAGVMAASWAQYQAQDALIKTCEKAGIELTLFHGRGGSIGRGGAPAHAALLSQPPGSLKGGLRVTEQGEMIRFKYGLPEITVSSLSLYTGAILEANLLPPPEPKESWRRIMDELSVISCDVYRGYVRENKDFVPYFRSATPEQELGKLPLGSRPAKRRPTGGVESLRAIPWIFAWTQNRLMLPAWLGAGTALQKVVEDGKQSELEAMCRDWPFFSTRLGMLEMVFAKADLWLAEYYDQRLVDKALWPLGKELRNLQEEDIKVVLAIANDSHLMADLPWIAESIQLRNIYTDPLNVLQAELLHRSRQAEKEGQEPDPRVEQALMVTIAGIAAGMRNTG	5.93 ± 0.19 h	5.73 ± 0.32 h	5.54 ± 0.18 h	5.364 ± 0.041 h	5.04 ± 0.057 h	2.97 ± 0.16 h	5.78 ± 0.22 h	10.98 ± 0.089 h	5.22 ± 0.11 h	10.6 ± 0.79 h	5.97 ± 0.078 h	11.8 ± 0.8 h
MNFEGKIALVTGASRGIGRAIAETLAARGAKVIGTATSENGAQAISDYLGANGKGLMLNVTDPASIESVLEKIRAEFGEVDILVNNAGITRDNLLMRMKDEEWNDIIETNLSSVFRLSKAVMRAMMKKRHGRIITIGSVVGTMGNGGQANYAAAKAGLIGFSKSLAREVASRGITVNVVAPGFIETDMTRALSDDQRAGILAQVPAGRLGGAQEIANAVAFLASDEAAYITGETLHVNGGMYMV [P0AEK2]	5.03 ± 0.11 h	4.85 ± 0.11 h	4.8 ± 0.2 h	5.27 ± 0.39 h	4.814 ± 0.012 h	2.98 ± 0.11 h	5.91 ± 0.17 h	12.8 ± 3.6 h	4.81 ± 0.28 h	8.546 ± 0.024 h	6.06 ± 0.38 h	11.3 ± 0.73 h
MNFHHLAYWQDKALSLAIENRLFINGEYTAAAENETFETVDPVTQAPLAKIARGKSVDIDRAMSAARGVFERGDWSLSSPAKRKAVLNKLADLMEAHAEELALLETLDTGKPIRHSLRDDIPGAARAIRWYAEAIDKVYGEVATTSSHELAMIVREPVGVIAAIVPWNFPLLLTCWKLGPALAAGNSVILKPSEKSPLSAIRLAGLAKEAGLPDGVLNVVTGFGHEAGQALSRHNDIDAIAFTGSTRTGKQLLKDAGDSNMKRVWLEAGGKSANIVFADCPDLQQAASATAAGIFYNQGQVCIAGTRLLLEESIADEFLALLKQQAQNWQPGHPLDPATTMGTLIDCAHADSVHSFIREGESKGQLLLDGRNAGLAAAIGPTIFVDVDPNASLSREEIFGPVLVVTRFTSEEQALQLANDSQYGLGAAVWTRDLSRAHRMSRRLKAGSVFVNNYNDGDMTVPFGGYKQSGNGRDKSLHALEKFTELKTIWISLEA	3.96 ± 0.66 h	> 8 h	1.03 ± 0.13 h	–	1.11 ± 0.082 h	2.68 ± 0.027 h	2.8 ± 0.14 h	3.22 ± 0.67 h	1.43 ± 0.29 h	1.48 h	4.1373 ± 0.0017 h	6.22 ± 0.066 h
MNFRRLKYFVKIVDIGSLTQAAEVLHIAQPALSQQVATLEGELNQQLLIRTKRGVTPTDAGKILYTHARAILRQCEQAQLAVHNVGQALSGQVSIGFAPGTAASSITMPLLQAVRAEFPEIVIYLHENSGAVLNEKLINHQLDMAVIYEHSPVAGVSSQALLKEDLFLVGTQDCPGQSVDVNAIAQMNLFLPSDYSAIRLRVDEAFSLRRLTAKVIGEIESIATLTAAIASGMGVAVLPESAARSLCGAVNGWMSRITTPSMSLSLSLNLPARANLSPQAQAVKELLMSVISSPVMEKRQWQLVS	6.26 ± 0.89 h	2.6 ± 0.032 h	0.485 ± 0.11 h	0.469 h	1.83 ± 0.15 h	–	–	–	0.978 ± 0.3 h	1.31 ± 0.14 h	–	–
MNHAPHLYFAWQQLVEKSQLMLRLATEEQWDELIASEMAYVNAVQEIAHLTEEVDPSTTMQEQLRPMLRLILDNESKVKQLLQIRMDELAKLVGQSSVQKSVLSAYGDQGGFVLAPQDNLF [P0ABY2]	–	–	–	–	–	0.191 h	–	–	–	–	–	–
MNHSETITIECTINGMPFQLHAAPGTPLSELLREQGLLSVKQGCCVGECGACTVLVDGTAIDSCLYLAAWAEGKEIRTLEGEAKGGKLSHVQQAYAKSGAVQCGFCTPGLIMATTAMLAKPREKPLTITEIRRGLAGNLCRCTGYQMIVNTVLDCEKTK	4.15 h	–	1.29 h	–	1.2 h	1.46 ± 0.069 h	2.29 ± 0.2 h	3.5 ± 0.34 h	–	–	–	3.76 h
MNIDTREITLEPADNARLLSLCGPFDDNIKQLERRLGIEINRRDNHFKLTGRPICVTAAADILRSLYVDTAPMRGQIQDIEPEQIHLAIKEARVLEQSAESVPEYGKAVNIKTKRGVIKPRTPNQAQYIANILDHDITFGVGPAGTGKTYLAVAAAVDALERQEIRRILLTRPAVEAGEKLGFLPGDLSQKVDPYLRPLYDALFEMLGFEKVEKLIERNVIEVAPLAYMRGRTLNDAFIILDESQNTTIEQMKMFLTRIGFNSKAVITGDVTQIDLPRNTKSGLRHAIEVLADVEEISFNFFHSEDVVRHPVVARIVNAYEAWEEAEQKRKAALAAERKREEQEQK [P0A9K3]	5.2 ± 0.69 h	4.25 ± 0.14 h	2.95 ± 0.066 h	4.1 ± 0.2 h	3.167 ± 0.017 h	2.77 ± 0.3 h	4.809 ± 0.025 h	7.67 ± 0.34 h	3.15 ± 0.17 h	4.373 ± 0.043 h	4.37 ± 0.17 h	7.78 ± 0.12 h
